Read-outs that look alike come from different tables or passages of the source.
B1: 2037-B10_Hc-A59D (antibody, human IgG1, lambda, V domains shown)
VH: EVQLVESGGGLVKPGGSLRLSCAASGFTFNKYAMNWVRQAPGKGLEWVARIRTKYNNYDTYYADSVKDRFTISRDDSKNTAYLQMNSLKTEDTAVYYCVRHGNFGNSYISYWAYWGQGTPVTVSS
VL: QTVVTQEPSLTVSPGGTVTLTCGSSTGAVTSGYYPNWLQQKPGQAPRGLIGGTKFLAPGTPARFSGSLLGGKAALTLSGVQPEDEAEYYCALWYSNRWVFGGGTQLTVTG
notes: human IgG1, lambda; also called SRP 2037 A59D; 2037-B10_VH-A59D
B2: 2037-B10_Hc-N106D (antibody, human IgG1, lambda, V domains shown)
VH: EVQLVESGGGLVKPGGSLRLSCAASGFTFNKYAMNWVRQAPGKGLEWVARIRTKYNNYATYYADSVKDRFTISRDDSKNTAYLQMNSLKTEDTAVYYCVRHGNFGDSYISYWAYWGQGTPVTVSS
VL: QTVVTQEPSLTVSPGGTVTLTCGSSTGAVTSGYYPNWLQQKPGQAPRGLIGGTKFLAPGTPARFSGSLLGGKAALTLSGVQPEDEAEYYCALWYSNRWVFGGGTQLTVTG
notes: human IgG1, lambda; also called SRP 2037 N106D; 2037-B10_VH-N106D
B3: 2037-B10_Hc-N103D (antibody, human IgG1, lambda, V domains shown)
VH: EVQLVESGGGLVKPGGSLRLSCAASGFTFNKYAMNWVRQAPGKGLEWVARIRTKYNNYATYYADSVKDRFTISRDDSKNTAYLQMNSLKTEDTAVYYCVRHGDFGNSYISYWAYWGQGTPVTVSS
VL: QTVVTQEPSLTVSPGGTVTLTCGSSTGAVTSGYYPNWLQQKPGQAPRGLIGGTKFLAPGTPARFSGSLLGGKAALTLSGVQPEDEAEYYCALWYSNRWVFGGGTQLTVTG
notes: human IgG1, lambda; also called SRP 2037 N103D; 2037-B10_VH-N103D
B4: 2037-B10_Hc-K31D (antibody, human IgG1, lambda, V domains shown)
VH: EVQLVESGGGLVKPGGSLRLSCAASGFTFNDYAMNWVRQAPGKGLEWVARIRTKYNNYATYYADSVKDRFTISRDDSKNTAYLQMNSLKTEDTAVYYCVRHGNFGNSYISYWAYWGQGTPVTVSS
VL: QTVVTQEPSLTVSPGGTVTLTCGSSTGAVTSGYYPNWLQQKPGQAPRGLIGGTKFLAPGTPARFSGSLLGGKAALTLSGVQPEDEAEYYCALWYSNRWVFGGGTQLTVTG
notes: human IgG1, lambda; also called SRP 2037 K31D; 2037-B10_VH-K31D
B5: 2037-B10_Hc-N30D (antibody, human IgG1, lambda, V domains shown)
VH: EVQLVESGGGLVKPGGSLRLSCAASGFTFDKYAMNWVRQAPGKGLEWVARIRTKYNNYATYYADSVKDRFTISRDDSKNTAYLQMNSLKTEDTAVYYCVRHGNFGNSYISYWAYWGQGTPVTVSS
VL: QTVVTQEPSLTVSPGGTVTLTCGSSTGAVTSGYYPNWLQQKPGQAPRGLIGGTKFLAPGTPARFSGSLLGGKAALTLSGVQPEDEAEYYCALWYSNRWVFGGGTQLTVTG
notes: human IgG1, lambda; also called SRP 2037 N30D; 2037-B10_VH-N30D
B6: SRP 2037-B10 F29D/R97D (antibody, human IgG1, lambda, V domains shown)
VH: EVQLVESGGGLVKPGGSLRLSCAASGFTDNKYAMNWVRQAPGKGLEWVARIRTKYNNYATYYADSVKDRFTISRDDSKNTAYLQMNSLKTEDTAVYYCVRHGNFGNSYISYWAYWGQGTPVTVSS
VL: QTVVTQEPSLTVSPGGTVTLTCGSSTGAVTSGYYPNWLQQKPGQAPRGLIGGTKFLAPGTPARFSGSLLGGKAALTLSGVQPEDEAEYYCALWYSNDWVFGGGTQLTVTG
notes: human IgG1, lambda
B7: 2037-B10_Hc-R52D (antibody, human IgG1, lambda, V domains shown)
VH: EVQLVESGGGLVKPGGSLRLSCAASGFTFNKYAMNWVRQAPGKGLEWVARIDTKYNNYATYYADSVKDRFTISRDDSKNTAYLQMNSLKTEDTAVYYCVRHGNFGNSYISYWAYWGQGTPVTVSS
VL: QTVVTQEPSLTVSPGGTVTLTCGSSTGAVTSGYYPNWLQQKPGQAPRGLIGGTKFLAPGTPARFSGSLLGGKAALTLSGVQPEDEAEYYCALWYSNRWVFGGGTQLTVTG
notes: human IgG1, lambda; also called SRP 2037 R52D; 2037-B10_VH-R52D
B8: 2037-B10_Hc-Y108D (antibody, human IgG1, lambda, V domains shown)
VH: EVQLVESGGGLVKPGGSLRLSCAASGFTFNKYAMNWVRQAPGKGLEWVARIRTKYNNYATYYADSVKDRFTISRDDSKNTAYLQMNSLKTEDTAVYYCVRHGNFGNSDISYWAYWGQGTPVTVSS
VL: QTVVTQEPSLTVSPGGTVTLTCGSSTGAVTSGYYPNWLQQKPGQAPRGLIGGTKFLAPGTPARFSGSLLGGKAALTLSGVQPEDEAEYYCALWYSNRWVFGGGTQLTVTG
notes: human IgG1, lambda; also called 2037-B10_VH-Y108D
B9: 2037-B10_Lc-N96D (antibody, V domains shown)
VH: not shown
VL: QTVVTQEPSLTVSPGGTVTLTCGSSTGAVTSGYYPNWLQQKPGQAPRGLIGGTKFLAPGTPARFSGSLLGGKAALTLSGVQPEDEAEYYCALWYSDRWVFGGGTQLTVTG
notes: human IgG1, lambda; also called SRP 2037 N96D; 2037-B10 VL-N96D
B10: 2037-B10_Lc-S95D (antibody, V domains shown)
VH: not shown
VL: QTVVTQEPSLTVSPGGTVTLTCGSSTGAVTSGYYPNWLQQKPGQAPRGLIGGTKFLAPGTPARFSGSLLGGKAALTLSGVQPEDEAEYYCALWYDNRWVFGGGTQLTVTG
notes: human IgG1, lambda; also called SRP 2037 S95D; 2037-B10 VL-S95D
B11: 2037-B10_Hc-K54D (antibody, human IgG1, lambda, V domains shown)
VH: EVQLVESGGGLVKPGGSLRLSCAASGFTFNKYAMNWVRQAPGKGLEWVARIRTDYNNYATYYADSVKDRFTISRDDSKNTAYLQMNSLKTEDTAVYYCVRHGNFGNSYISYWAYWGQGTPVTVSS
VL: QTVVTQEPSLTVSPGGTVTLTCGSSTGAVTSGYYPNWLQQKPGQAPRGLIGGTKFLAPGTPARFSGSLLGGKAALTLSGVQPEDEAEYYCALWYSNRWVFGGGTQLTVTG
notes: human IgG1, lambda; also called SRP 2037 K54D; 2037-B10_VH-K54D
B12: 2037-B10_Lc-Y94D (antibody, V domains shown)
VH: not shown
VL: QTVVTQEPSLTVSPGGTVTLTCGSSTGAVTSGYYPNWLQQKPGQAPRGLIGGTKFLAPGTPARFSGSLLGGKAALTLSGVQPEDEAEYYCALWDSNRWVFGGGTQLTVTG
notes: human IgG1, lambda; also called SRP 2037 Y94D; 2037-B10 VL-Y94D
B13: 2037-B10_Hc-N56D (antibody, human IgG1, lambda, V domains shown)
VH: EVQLVESGGGLVKPGGSLRLSCAASGFTFNKYAMNWVRQAPGKGLEWVARIRTKYDNYATYYADSVKDRFTISRDDSKNTAYLQMNSLKTEDTAVYYCVRHGNFGNSYISYWAYWGQGTPVTVSS
VL: QTVVTQEPSLTVSPGGTVTLTCGSSTGAVTSGYYPNWLQQKPGQAPRGLIGGTKFLAPGTPARFSGSLLGGKAALTLSGVQPEDEAEYYCALWYSNRWVFGGGTQLTVTG
notes: human IgG1, lambda; also called SRP 2037 N56D; 2037-B10_VH-N56D
B14: 2037-B10_Hc-A33D (antibody, human IgG1, V domains shown)
VH: EVQLVESGGGLVKPGGSLRLSCAASGFTFNKYDMNWVRQAPGKGLEWVARIRTKYNNYATYYADSVKDRFTISRDDSKNTAYLQMNSLKTEDTAVYYCVRHGNFGNSYISYWAYWGQGTPVTVSS
VL: QTVVTQEPSLTVSPGGTVTLTCGSSTGAVTSGYYPNWLQQKPGQAPRGLIGGTKFLAPGTPARFSGSLLGGKAALTLSGVQPEDEAEYYCALWYSNRWVFGGGTQLTVTG
notes: human IgG1, lambda; also called SRP 2037 A33D; 2037-B10_VH-A33D
B15: 2037-B10_Hc-G105D (antibody, human IgG1, lambda, V domains shown)
VH: EVQLVESGGGLVKPGGSLRLSCAASGFTFNKYAMNWVRQAPGKGLEWVARIRTKYNNYATYYADSVKDRFTISRDDSKNTAYLQMNSLKTEDTAVYYCVRHGNFDNSYISYWAYWGQGTPVTVSS
VL: QTVVTQEPSLTVSPGGTVTLTCGSSTGAVTSGYYPNWLQQKPGQAPRGLIGGTKFLAPGTPARFSGSLLGGKAALTLSGVQPEDEAEYYCALWYSNRWVFGGGTQLTVTG
notes: human IgG1, lambda; also called SRP 2037 G105D; 2037-B10_VH-G105D
B16: 2037-B10_Hc-R50D (antibody, human IgG1, lambda, V domains shown)
VH: EVQLVESGGGLVKPGGSLRLSCAASGFTFNKYAMNWVRQAPGKGLEWVADIRTKYNNYATYYADSVKDRFTISRDDSKNTAYLQMNSLKTEDTAVYYCVRHGNFGNSYISYWAYWGQGTPVTVSS
VL: QTVVTQEPSLTVSPGGTVTLTCGSSTGAVTSGYYPNWLQQKPGQAPRGLIGGTKFLAPGTPARFSGSLLGGKAALTLSGVQPEDEAEYYCALWYSNRWVFGGGTQLTVTG
notes: human IgG1, lambda; also called SRP 2037 R50D; 2037-B10_VH-R50D
B17: 2037-B10_Hc-F27D (antibody, human IgG1, lambda, V domains shown)
VH: EVQLVESGGGLVKPGGSLRLSCAASGDTFNKYAMNWVRQAPGKGLEWVARIRTKYNNYATYYADSVKDRFTISRDDSKNTAYLQMNSLKTEDTAVYYCVRHGNFGNSYISYWAYWGQGTPVTVSS
VL: QTVVTQEPSLTVSPGGTVTLTCGSSTGAVTSGYYPNWLQQKPGQAPRGLIGGTKFLAPGTPARFSGSLLGGKAALTLSGVQPEDEAEYYCALWYSNRWVFGGGTQLTVTG
notes: human IgG1, lambda; also called SRP 2037 F27D; 2037-B10_VH-F27D

Columns and labels:
[1] = biological target: T1, human CD3 epsilon (Acro Cat #CDE-H5223) (human, UniProt P07766 23-126); experiment: SPR (Biacore), antibody captured, human CD3 epsilon analyte
T1 construct: Bought recombinant protein; also called rhCD3E
T1 sequence (P07766 23-126 limits assumed): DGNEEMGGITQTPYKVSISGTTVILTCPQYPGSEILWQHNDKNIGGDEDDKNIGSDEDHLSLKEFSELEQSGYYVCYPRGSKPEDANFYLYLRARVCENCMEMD
Description: (§1) Anti-Fab or anti-Fc polyclonal antibodies were immobilized onto a CM5 chip (GE Life Sciences) using amine coupling chemistry (from Amine Coupling Kit, GE Life Sciences). The immobilization steps were carried out at a flow rate of 25 μl/min in 1×HBS-EP+ buffer (GE Life Sciences; 10× Stock diluted before use). The sensor surfaces were activated for 7 min with a mixture of NHS (0.05 M) and EDC (0.2 M). The Anti-Fab or Anti-Fc antibodies were injected over all 4 flow cells at a concentration of 25 μg/mL in 10 mM sodium acetate, pH 4.5, for 7 min. Ethanolamine (1 M, pH 8.5) was injected for 7 min to block any remaining activated groups.
(§2) Off-rate and kinetic binding experiments were performed at 25° C. using 1×HBS-EP+ buffer. Test and control antibodies were injected over the anti-Fab or anti-Fc surface at concentrations of 5-10 μg/mL for 12 seconds at a flow rate of 10 μL/min on flow cells 2, 3 and 4, followed by a buffer wash for 30 seconds at the same flow rate. […] After capturing ligand (antibody) on the anti-Fc or anti-Fab surface, the analyte (human CD3 epsilon, Acro Cat #CDE-H5223) was bound for 180 seconds, followed by a 600 second dissociation phase at a flow rate of 50 μL/min. Between each ligand capture and analyte binding cycle, regeneration was carried out using two injections of 10 mM Glycine pH 2.0 for 30 seconds at 30 μL/min, followed by a 30 second buffer wash step.
(§3) The data was fit with the Biacore T200 Evaluation software, using a 1-1 Langmuir binding model. KD (affinity, nM) was determined as a ratio of the kinetic rate constants calculated from the fits of the association and dissociation phases.

[2] = biological target: T2, human CD3 on T-cell lines (CD3-expressing Jurkat cells; HUT78 cells) (human, UniProt P07766 23-207); experiment: flow cytometry, HUT78 cells
T2 construct: On cells it stands in the CD3/TCR complex
T2 sequence (P07766 23-207 limits assumed): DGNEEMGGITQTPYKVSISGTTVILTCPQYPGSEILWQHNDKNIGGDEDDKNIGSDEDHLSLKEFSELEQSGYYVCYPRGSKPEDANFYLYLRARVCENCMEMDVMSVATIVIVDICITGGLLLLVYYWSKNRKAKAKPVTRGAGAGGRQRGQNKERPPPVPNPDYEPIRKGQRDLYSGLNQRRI

[3] = biological target: T1, human CD3 epsilon (Acro Cat #CDE-H5223); experiment: SPR (Biacore), antibody captured, human CD3 epsilon analyte; remark: listed apart in the source
Description: as §1, §2, §3

Binder | Kd [1] [nM] | koff [1] [s⁻¹] | kon [1] [M⁻¹ s⁻¹] | Bmax (MFI) [2] [MFI] | Kd [2] [nM] | Kd [3] [nM] | koff [3] [s⁻¹] | kon [3] [M⁻¹ s⁻¹]
B1 | 0.476 | 0.000251 | 527000 | 742 | 0.07 | – | – | –
B2 | 0.841 | 0.000277 | 329000 | 1010 | 0.26 | – | – | –
B3 | 85 | 0.000583 | 6860 | 166 | 28.6 | – | – | –
B4 | 1.39 | 0.000377 | 271000 | 1060 | 0.94 | – | – | –
B5 | 0.36 | 0.000189 | 524000 | 989 | 0.22 | – | – | –
B6 | – | – | – | – | – | 185 | 0.000761 | 4110
B7 | – | – | – | 142 | 14.1 | – | – | –
B8 | 0.239 | 0.00019 | 796000 | 820 | 0.12 | – | – | –
B9 | 0.596 | 0.000265 | 445000 | 1220 | 0.43 | – | – | –
B10 | – | – | – | 896 | 0.29 | – | – | –
B11 | 0.856 | 0.000289 | 337000 | 857 | 0.37 | – | – | –
B12 | – | – | – | 1600 | 0.7 | – | – | –
B13 | 5.37 | 0.000668 | 124000 | 216 | 27.4 | – | – | –
B14 | – | – | – | 103 | 8.57 | – | – | –
B15 | 0.767 | 0.000207 | 270000 | 1010 | 0.36 | – | – | –
B16 | – | – | – | 119 | 6.61 | – | – | –
B17 | 1.07 | 0.000278 | 259000 | 1360 | 1.27 | – | – | –
